Consider eleven molecules from patent US20240101675A1 (BIOLOJIC DESIGN, published 2024).

Residue numbers refer to the chain shown, from its start. Like-named read-outs stand apart in the source and are kept apart here.

The target in experiment [1] is T1, recombinant human IL-13 (human, UniProt P35225 35-146). As to the kind of experiment: cell-based or functional assay.
Experiment [2] addresses T2, hTSLP-His (ACRO biosystems cat: TSP-H52Hb) (human, UniProt Q969D9 29-159, limits assumed). As to the kind of experiment: cell-based or functional assay.
In another experiment the target is T3, human TSLP (human, UniProt Q969D9 29-159).
T3 construct: also called hTSLP; h-TSLP
As to the kind of experiment: ELISA, ligand coated, IgG titrated 1 to 1000 nM.

The target of experiment [3] is T4, recombinant cynomolgus monkey IL-13 (cynomolgus monkey, UniProt Q0PW92 21-132).
T4 construct: also called rc-IL-13; cIL-13
As to the kind of experiment: ELISA, ligand coated, IgG titrated 1 to 1000 nM.

Another experiment deals with T5, cynomolgus monkey TSLP (cynomolgus monkey, UniProt A0A7N9CAT7 29-159).
T5 construct: also called cTSLP; cyno-TSLP
As to the kind of experiment: ELISA, ligand coated, IgG titrated 1 to 1000 nM.

The target of experiment [4] is T1, recombinant human IL-13. As to the kind of experiment: SPR (BIAcore T200), IgG captured, hIL-13 as analyte 20 to 0.6 nM.
Experiment [5] has as its target T2, hTSLP-His (ACRO biosystems cat: …). As to the kind of experiment: competition ELISA: 3 nM hTSLP-His pre-mixed with IgG, plate coated with TSLP-R-Fc.
A further experiment deals with T6, IL-4 (Homo sapiens (Human), UniProt P05112 25-153).
T6 sequence: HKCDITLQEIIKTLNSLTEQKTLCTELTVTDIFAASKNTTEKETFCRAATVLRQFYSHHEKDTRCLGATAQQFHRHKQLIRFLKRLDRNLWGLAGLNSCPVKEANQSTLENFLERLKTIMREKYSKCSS
As to the kind of experiment: specificity ELISA: plate coated with 250 ng ligand, 100 nM IgG, anti-human Fc-HRP.

The target in experiment [6] is IL-2 (specificity ELISA of Example 6) (Homo sapiens (Human), UniProt P60568 21-153). The description is as above.
In a further experiment the target is BSA (UniProt P02769 25-607). The experiment is described as above.
Experiment [7] deals with T7, recombinant human PD-1 tagged with histidine tag (hPD-1-His) (human, UniProt Q15116 25-167, limits assumed).
T7 construct: bought (Reprokine); not shown: histidine tag
As to the kind of experiment: yeast surface display flow cytometry: scFv on yeast, 111 nM hPD-1-His, anti-His-APC; median RFU.

For experiment [8], the target named is T8, PD-1 on engineered Jurkat effector cells (PD-1/PD-L1 Blockade Bioassay) (UniProt Q15116 25-288, limits assumed). As to the kind of experiment: cell-based or functional assay.
The target of experiment [9] is T8, PD-1 on engineered Jurkat effector …. As to the kind of experiment: cell-based or functional assay. This is another data set of the same source.
Experiment [10] has as its target T9, recombinant human OX40 tagged with histidine tag (hOX40-His) (human, UniProt P43489 29-216).
T9 construct: bought (Reprokine); also called hOX-His; not shown: histidine tag
T9 sequence (looked up): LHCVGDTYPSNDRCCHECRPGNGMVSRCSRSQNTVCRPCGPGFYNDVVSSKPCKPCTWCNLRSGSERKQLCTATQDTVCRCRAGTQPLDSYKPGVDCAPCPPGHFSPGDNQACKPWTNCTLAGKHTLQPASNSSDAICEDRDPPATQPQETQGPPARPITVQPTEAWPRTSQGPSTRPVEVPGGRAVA
As to the kind of experiment: direct ELISA, antibody coated, hOX40-His titrated 0 to 500 nM.

Experiment [11] concerns the target T9, recombinant human OX40 tagged with …. As to the kind of experiment: direct ELISA: antibody coated on the plate, hOX40-His titrated, anti-His-HRP.
Experiment [12] addresses T7, recombinant human PD-1 tagged with …. As to the kind of experiment: direct ELISA: antibody coated on the plate, hPD-1-His titrated, anti-His-HRP.
Experiment [13] has the same target. As to the kind of experiment: yeast surface display scFv, flow cytometry.
Experiment [14] deals with T10, recombinant human GITR tagged with histidine tag (hGITR-His) (human, UniProt Q9Y5U5 26-161, limits assumed).
T10 construct: bought (Reprokine); not shown: histidine tag
T10 sequence (looked up): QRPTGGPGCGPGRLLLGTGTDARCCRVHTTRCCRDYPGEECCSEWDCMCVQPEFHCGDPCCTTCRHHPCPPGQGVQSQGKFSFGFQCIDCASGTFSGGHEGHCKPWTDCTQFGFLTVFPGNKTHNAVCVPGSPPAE
As to the kind of experiment: yeast surface display scFv, flow cytometry.

Experiment [15] concerns the target T7, recombinant human PD-1 tagged with …. As to the kind of experiment: yeast surface display scFv, flow cytometry, 30 nM hPD-1-His.
Experiment [16] deals with T9, recombinant human OX40 tagged with …. As to the kind of experiment: yeast surface display scFv, flow cytometry, 90 nM hOX40-His.
In experiment [17] the target is T7, recombinant human PD-1 tagged with …. As to the kind of experiment: yeast surface display scFv, flow cytometry, 250 nM hPD-1-His.
The target of experiment [18] is T10, recombinant human GITR tagged with …. As to the kind of experiment: direct ELISA, antibody coated, hGITR-His titrated 0 to 865 nM.
Experiment [19] shares this target. As to the kind of experiment: direct ELISA: antibody coated on the plate, hGITR-His titrated, anti-His-HRP.
Experiment [20] addresses T7, recombinant human PD-1 tagged with …. As to the kind of experiment: direct ELISA: antibody coated on the plate, hPD-1-His titrated, anti-His-HRP. The source holds these as a separate data set.
Experiment [21] has as its target T2, hTSLP-His (ACRO biosystems cat: …). As to the kind of experiment: competition ELISA: hTSLP-His pre-mixed with soluble TSLP-R as competitor, plate coated with TSLP-R-Fc.
The target is the same in experiment [22]. As to the kind of experiment: blocking ELISA: competitor mixed with 3 nM hTSLP-His, then on a plate coated with TSLP-R-Fc; bound hTSLP-His by anti-His-HRP.

T1 sequence (P35225 35-146 limits assumed): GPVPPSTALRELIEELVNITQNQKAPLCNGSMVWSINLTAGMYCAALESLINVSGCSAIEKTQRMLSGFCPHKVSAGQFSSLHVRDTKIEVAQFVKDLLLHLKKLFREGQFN
T4 sequence (Q0PW92 entry or part of it): as the sequence (P35225 35-146 limits assumed) above, with G1S, R10K, M42V, S67N, H83R, L100V counted along it
T5 sequence (A0A7N9CAT7 entry or part of it): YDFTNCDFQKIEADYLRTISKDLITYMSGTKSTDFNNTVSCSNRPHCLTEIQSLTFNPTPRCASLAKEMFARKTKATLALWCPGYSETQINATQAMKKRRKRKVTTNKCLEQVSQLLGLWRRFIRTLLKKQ
Sequence of IL-2 (specificity ELISA of Example 6) (P60568 21-153 limits assumed): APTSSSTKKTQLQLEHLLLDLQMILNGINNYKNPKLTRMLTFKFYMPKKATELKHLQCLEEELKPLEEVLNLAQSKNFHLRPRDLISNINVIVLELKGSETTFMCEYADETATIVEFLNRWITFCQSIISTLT
Sequence of BSA (P02769 25-607 limits assumed): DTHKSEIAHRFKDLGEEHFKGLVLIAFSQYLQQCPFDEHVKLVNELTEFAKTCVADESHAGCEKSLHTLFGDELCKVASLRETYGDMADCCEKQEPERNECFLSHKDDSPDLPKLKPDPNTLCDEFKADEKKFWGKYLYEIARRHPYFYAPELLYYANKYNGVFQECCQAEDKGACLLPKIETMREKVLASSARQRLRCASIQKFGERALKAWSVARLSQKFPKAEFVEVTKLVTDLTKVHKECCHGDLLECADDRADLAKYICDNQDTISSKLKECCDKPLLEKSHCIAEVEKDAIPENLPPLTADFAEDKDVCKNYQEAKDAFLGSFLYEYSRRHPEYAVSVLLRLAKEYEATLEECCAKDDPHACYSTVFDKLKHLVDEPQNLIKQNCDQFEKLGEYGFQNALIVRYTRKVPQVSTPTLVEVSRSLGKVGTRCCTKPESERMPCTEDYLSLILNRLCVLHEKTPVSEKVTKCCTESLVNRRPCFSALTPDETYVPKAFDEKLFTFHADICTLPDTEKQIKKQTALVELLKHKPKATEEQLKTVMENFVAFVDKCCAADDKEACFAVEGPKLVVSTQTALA

B1: BDG33.023 (antibody, human IgG1, V domains shown)
VH: QMQLVESGGGVVQPGRSLRLSCAASGFAFRTYGMHWVRQAPGKGLEWVAVIWYDGSNTHYADSVKGRFTITRDNSKNTLNLQMNSLRAEDTAVYYCARAPQWYLSAEAFDLWGQGTMVTVSS
VL: SYVLTQPPSVSVAPGQTARITCGGNLIGSKLVHWYQQKPGQAPVLVVYDDSDRPSRIPERFSGSNSGNTATLTISRVEAGDEADYYCQVWDHSSDHVVFGGGTKLTVL
notes: IgG (human IgG1 format, symmetrical IgG); also called BGD33.023; BGD33.0023
Take B1: in the experiment with recombinant human IL-13 [1], the “IC50, inhibition of IL-13 signaling cascade in HEK-Blue IL-4/IL-13 cells” value turned out to be 1.3 nM. The “IC50, inhibition of TSLP dependent pSTAT5 activation in MUTZ5 cells” value in [2] is 13 pM. The results for the EC50 (with human TSLP; in [3]; in the experiment with cynomolgus monkey TSLP) were 2.5 nM, 7.1 nM and 8.2 nM, respectively. The equilibrium dissociation constant (Kd) with recombinant human IL-13 [4] was found to be 3.65 nM. Moreover, the koff with recombinant human IL-13 [4] worked out at 0.0157 s⁻¹. Besides, in the experiment with recombinant human IL-13 [4], the kon amounted to 4.31e+06 M⁻¹ s⁻¹. In experiment [5], this molecule displayed an IC50 of 0.41 nM. Besides, the binding result (with IL-4; in experiment [6]; in the experiment with BSA) was “no binding (tested: 100 nM IgG (not on the sheet))” each time.

B2: G2 (GITR Library) (scFv, V domains shown)
VH: QVQLVESGGGVVQPGRSLRLDCKASGITFSNSGMHWVRQAPGKGLEWVAVIWYDGSLRYYADSVKGRFTISRDNSKNTLFLQMNSLRAEDTAVYYCATNDDYWGQGTLVTVSS
VL: EIVLTQSPATLSLSPGERATLSCRASQSVSDNLAWYQQKPGQAPRLLIYDADNRATGIPARFSGSGSGTDFTLTISSLEPEDFAVYYCQQSSNLPRTFGQGTKVEIK
notes: also called Clone G2; not shown: linker
On to B2, for which, in experiment [7], the binding result is “binds”.

B3: BDG32.007 (antibody, human IgG1, V domains shown)
VH: B2 VH with L57K, R58T
VL: B2 VL with S30E, D31H, N32Y, D52G, S91Y, N93D, L94W, R96L
notes: human IgG1 format of clone 3212ACOXC5A
Turning to B3, in [8], the “IC50, cellular reporter PD1/PDL1 blocking assay (PD-1 dependent luminescence)” value was about 2.5 nM. For the same molecule, the “IC50 (read off the curve); PD-1/PD-L1 Blockade Bioassay, luciferase RLU” value in experiment [9] was about 2 nM. Further, the EC50 in experiment [10] is about 26 nM. Moreover, the concentration giving a half-maximal response (EC50 (read off the curve)) was about 30 nM in [11] and about 0.6 nM in [12].

B4: G8 (GITR Library) (scFv, V domains shown)
VH: B2 VH with T98S
VL: B2 VL
notes: not shown: linker
With B4, the binding result in experiment [13] and in [14] was “binds” throughout.

B5: 3212ACOXC81 (OX40 library) (scFv, V domains shown)
VH: B2 VH with T28D, L57T
VL: B2 VL with S30I, D31H, N32Y, D52S, S91Y, S92D, L94W, R96L
notes: not shown: linker
As for B5, the binding result in experiment [15] and in experiment [16] was “binds” each time.

B6: G5 (GITR Library) (scFv, V domains shown)
VH: B2 VH with Q13H, L20V
VL: B2 VL with E79A
notes: not shown: linker
Turning to B6, the binding result in [13] and in experiment [14] was “binds” in each case.

B7: G1 (GITR Library) (scFv, V domains shown)
VH: B2 VH with V2A, P14A, S32R
VL: B2 VL
notes: not shown: linker
On to B7, for which the binding result in experiment [14] and in experiment [17] was “binds” in each case.

B8: BDG32.005 (antibody, human IgG1, V domains shown)
VH: B2 VH
VL: B2 VL with Q89M, P95A
notes: human IgG1 format
As for B8, the “IC50, cellular reporter PD1/PDL1 blocking assay (PD-1 dependent luminescence)” value in [8] was about 614 nM. The EC50 in [18] is about 4 nM. Moreover, the “EC50 (read off the curve)” value in [19] is about 4 nM; in experiment [20], about 3 nM.

B9: BDG32.008 (antibody, human IgG1, V domains shown)
VH: B2 VH with T28D
VL: B2 VL with S30E, D31H, N32Y, I48V, D52S, S91Y, L94W, R96L
notes: human IgG1 format of clone 3212ACOXC7A
For B9, in [10], the EC50 is about 24 nM. Further, the “EC50 (read off the curve)” value in experiment [11] was about 20 nM; in experiment [12], about 0.9 nM.

B10: BDG32.004 (antibody, human IgG1, V domains shown)
VH: B2 VH with I27F
VL: B2 VL with A34Q, N53T
For the molecule B10, in experiment [18], the EC50 is about 13 nM. Also, in [20], the “EC50 (read off the curve)” value is about 2 nM.

B11: TSLP-R-Fc tag (ACRO biosystems TSR-H525a) (Fc fusion, UniProt Q9HC73 23-231, looked up)
chain: QGGAAEGVQIQIIYFNLETVQVTWNASKYSRTNLTFHYRFNGDEAYDQCTNYLLQEGHTSGCLLDAEQRDDILYFSIRNGTHPVFTASRWMVYYLKPSSPKHVRFSWHQDAVTVTCSDLSYGDLLYEVQYRSPFDTEWQSKQENTCNVTIEGLDAEKCYSFWVRVKAMEDVYGPDTYPSDWSEVTCWQRGEIRDACAETPTPPKPKLSK
notes: bought; also called TSLP receptor; not shown: Fc tag
For B11, in [21], the IC50 came to 3 nM. Also, in experiment [22], the “IC50 (read off the curve)” value is about 3 nM.
